Numbered stars: 1 amine (or outer) side, 2 acyl side, 3 side chain; on linkers, the order of the positions; unused ones are H or OH. Bridge positions count the residues as written; N and C are the ends. Side chains are listed from the residue outwards. Ends that are not written are not given here. * marks the point of attachment. C20 diacid = O=C(O)CCCCCCCCCCCCCCCCCCC(=O)*; γGlu = O=C(O)[C@H](CCC(=O)[*:2])N[*:1]
How the values were obtained:
[1] = target: T1, human amylin 3(a) receptor (human calcitonin receptor + RAMP-3) (human, UniProt P30988 25-474; O60896 24-148, limits assumed); test: cell-based or functional assay
T1 sequence (looked up) 1: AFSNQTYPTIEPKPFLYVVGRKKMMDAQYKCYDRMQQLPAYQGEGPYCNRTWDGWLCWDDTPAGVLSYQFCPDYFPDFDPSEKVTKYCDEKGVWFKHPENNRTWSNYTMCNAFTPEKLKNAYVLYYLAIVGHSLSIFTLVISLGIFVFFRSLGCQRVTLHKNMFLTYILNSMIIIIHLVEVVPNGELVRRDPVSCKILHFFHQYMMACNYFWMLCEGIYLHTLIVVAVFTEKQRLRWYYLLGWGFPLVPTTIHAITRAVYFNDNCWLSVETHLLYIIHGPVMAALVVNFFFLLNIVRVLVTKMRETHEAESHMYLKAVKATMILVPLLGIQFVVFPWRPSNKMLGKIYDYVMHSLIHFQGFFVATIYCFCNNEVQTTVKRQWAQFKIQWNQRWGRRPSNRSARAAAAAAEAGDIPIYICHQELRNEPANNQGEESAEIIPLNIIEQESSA
T1 sequence (looked up) 2: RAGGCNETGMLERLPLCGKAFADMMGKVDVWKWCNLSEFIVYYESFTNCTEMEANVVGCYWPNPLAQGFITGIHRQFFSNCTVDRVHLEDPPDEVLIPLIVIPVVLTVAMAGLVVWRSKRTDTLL

[2] = target: T2, human calcitonin receptor (human, UniProt P30988 25-474); test: cell-based or functional assay
T2 sequence (looked up): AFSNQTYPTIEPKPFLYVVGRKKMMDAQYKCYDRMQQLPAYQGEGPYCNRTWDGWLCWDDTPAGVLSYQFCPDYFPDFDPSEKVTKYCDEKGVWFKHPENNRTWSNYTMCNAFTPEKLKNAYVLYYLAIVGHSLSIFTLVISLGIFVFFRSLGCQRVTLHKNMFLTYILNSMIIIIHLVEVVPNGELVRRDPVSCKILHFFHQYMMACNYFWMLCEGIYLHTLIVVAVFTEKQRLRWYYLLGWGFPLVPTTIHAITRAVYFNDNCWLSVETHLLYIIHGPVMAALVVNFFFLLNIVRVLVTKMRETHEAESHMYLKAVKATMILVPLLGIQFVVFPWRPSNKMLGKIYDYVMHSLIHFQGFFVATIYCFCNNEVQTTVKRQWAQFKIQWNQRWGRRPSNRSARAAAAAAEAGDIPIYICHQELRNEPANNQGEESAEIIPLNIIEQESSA

B1: N^α1-[(4S)-4-carboxy-4-(19-carboxynonadecanoylamino)butanoyl]-[Glu14,Arg17,Pro21,Pro27,His35]-h-amylin (peptide)
peptide: {C20 diacid-γGlu}-KCNTATCATQRLAEFLRHSSPNFGAIPSSTNVGSHTY-NH2
modifications: disulfide 2-7
SMILES: CC[C@H](C)[C@H](NC(=O)[C@H](C)NC(=O)CNC(=O)[C@H](Cc1ccccc1)NC(=O)[C@H](CC(N)=O)NC(=O)[C@@H]1CCCN1C(=O)[C@H](CO)NC(=O)[C@H](CO)NC(=O)[C@H](Cc1c[nH]cn1)NC(=O)[C@H](CCCNC(=N)N)NC(=O)[C@H](CC(C)C)NC(=O)[C@H](Cc1ccccc1)NC(=O)[C@H](CCC(=O)O)NC(=O)[C@H](C)NC(=O)[C@H](CC(C)C)NC(=O)[C@H](CCCNC(=N)N)NC(=O)[C@H](CCC(N)=O)NC(=O)[C@@H](NC(=O)[C@H](C)NC(=O)[C@@H]1CSSC[C@H](NC(=O)[C@H](CCCCN)NC(=O)CC[C@H](NC(=O)CCCCCCCCCCCCCCCCCCC(=O)O)C(=O)O)C(=O)N[C@@H](CC(N)=O)C(=O)N[C@@H]([C@@H](C)O)C(=O)N[C@@H](C)C(=O)N[C@@H]([C@@H](C)O)C(=O)N1)[C@@H](C)O)C(=O)N1CCC[C@H]1C(=O)N[C@@H](CO)C(=O)N[C@@H](CO)C(=O)N[C@H](C(=O)N[C@@H](CC(N)=O)C(=O)N[C@H](C(=O)NCC(=O)N[C@@H](CO)C(=O)N[C@@H](Cc1c[nH]cn1)C(=O)N[C@H](C(=O)N[C@@H](Cc1ccc(O)cc1)C(N)=O)[C@@H](C)O)C(C)C)[C@@H](C)O
notes: also called compound 18
hAmylin-R funct. EC50 (pM) [1]: 154 pM | Ratio hCT/hAmylin funct. [2]: 4.8

B2: N^α1N^α1-[(4S)-4-carboxy-4-(19-carboxynonadecanoylamino)butanoyl]-[Glu14,Arg17,Pro21,Pro27,Glu35]-h-amylin (peptide)
peptide: {C20 diacid-γGlu}-KCNTATCATQRLAEFLRHSSPNFGAIPSSTNVGSETY-NH2
modifications: disulfide 2-7
SMILES: CC[C@H](C)[C@H](NC(=O)[C@H](C)NC(=O)CNC(=O)[C@H](Cc1ccccc1)NC(=O)[C@H](CC(N)=O)NC(=O)[C@@H]1CCCN1C(=O)[C@H](CO)NC(=O)[C@H](CO)NC(=O)[C@H](Cc1c[nH]cn1)NC(=O)[C@H](CCCNC(=N)N)NC(=O)[C@H](CC(C)C)NC(=O)[C@H](Cc1ccccc1)NC(=O)[C@H](CCC(=O)O)NC(=O)[C@H](C)NC(=O)[C@H](CC(C)C)NC(=O)[C@H](CCCNC(=N)N)NC(=O)[C@H](CCC(N)=O)NC(=O)[C@@H](NC(=O)[C@H](C)NC(=O)[C@@H]1CSSC[C@H](NC(=O)[C@H](CCCCN)NC(=O)CC[C@H](NC(=O)CCCCCCCCCCCCCCCCCCC(=O)O)C(=O)O)C(=O)N[C@@H](CC(N)=O)C(=O)N[C@@H]([C@@H](C)O)C(=O)N[C@@H](C)C(=O)N[C@@H]([C@@H](C)O)C(=O)N1)[C@@H](C)O)C(=O)N1CCC[C@H]1C(=O)N[C@@H](CO)C(=O)N[C@@H](CO)C(=O)N[C@H](C(=O)N[C@@H](CC(N)=O)C(=O)N[C@H](C(=O)NCC(=O)N[C@@H](CO)C(=O)N[C@@H](CCC(=O)O)C(=O)N[C@H](C(=O)N[C@@H](Cc1ccc(O)cc1)C(N)=O)[C@@H](C)O)C(C)C)[C@@H](C)O
notes: also called compound 22
hAmylin-R funct. EC50 (pM) [1]: 270 pM | Ratio hCT/hAmylin funct. [2]: 3.8

B3: N^α1-[(4S)-4-carboxy-4-(19-carboxynonadecanoylamino)butanoyl]-[Glu14,Arg17,Pro21,Pro27,Pro29]-h-amylin (peptide)
peptide: {C20 diacid-γGlu}-KCNTATCATQRLAEFLRHSSPNFGAIPSPTNVGSNTY-NH2
modifications: disulfide 2-7
SMILES: CC[C@H](C)[C@H](NC(=O)[C@H](C)NC(=O)CNC(=O)[C@H](Cc1ccccc1)NC(=O)[C@H](CC(N)=O)NC(=O)[C@@H]1CCCN1C(=O)[C@H](CO)NC(=O)[C@H](CO)NC(=O)[C@H](Cc1c[nH]cn1)NC(=O)[C@H](CCCNC(=N)N)NC(=O)[C@H](CC(C)C)NC(=O)[C@H](Cc1ccccc1)NC(=O)[C@H](CCC(=O)O)NC(=O)[C@H](C)NC(=O)[C@H](CC(C)C)NC(=O)[C@H](CCCNC(=N)N)NC(=O)[C@H](CCC(N)=O)NC(=O)[C@@H](NC(=O)[C@H](C)NC(=O)[C@@H]1CSSC[C@H](NC(=O)[C@H](CCCCN)NC(=O)CC[C@H](NC(=O)CCCCCCCCCCCCCCCCCCC(=O)O)C(=O)O)C(=O)N[C@@H](CC(N)=O)C(=O)N[C@@H]([C@@H](C)O)C(=O)N[C@@H](C)C(=O)N[C@@H]([C@@H](C)O)C(=O)N1)[C@@H](C)O)C(=O)N1CCC[C@H]1C(=O)N[C@@H](CO)C(=O)N1CCC[C@H]1C(=O)N[C@H](C(=O)N[C@@H](CC(N)=O)C(=O)N[C@H](C(=O)NCC(=O)N[C@@H](CO)C(=O)N[C@@H](CC(N)=O)C(=O)N[C@H](C(=O)N[C@@H](Cc1ccc(O)cc1)C(N)=O)[C@@H](C)O)C(C)C)[C@@H](C)O
notes: also called compound 37
hAmylin-R funct. EC50 (pM) [1]: 92 pM | Ratio hCT/hAmylin funct. [2]: 4

B4: N^ε1-[(4S)-4-carboxy-4-(19-carboxynonadecanoylamino)butanoyl]-[Ala14,Arg17,Pro21,Pro27,Pro34]-h-amylin (peptide)
peptide: K([γGlu-C20 diacid])CNTATCATQRLAAFLRHSSPNFGAIPSSTNVGPNTY-NH2
modifications: disulfide 2-7; N-terminus assumed
SMILES: CC[C@H](C)[C@H](NC(=O)[C@H](C)NC(=O)CNC(=O)[C@H](Cc1ccccc1)NC(=O)[C@H](CC(N)=O)NC(=O)[C@@H]1CCCN1C(=O)[C@H](CO)NC(=O)[C@H](CO)NC(=O)[C@H](Cc1c[nH]cn1)NC(=O)[C@H](CCCNC(=N)N)NC(=O)[C@H](CC(C)C)NC(=O)[C@H](Cc1ccccc1)NC(=O)[C@H](C)NC(=O)[C@H](C)NC(=O)[C@H](CC(C)C)NC(=O)[C@H](CCCNC(=N)N)NC(=O)[C@H](CCC(N)=O)NC(=O)[C@@H](NC(=O)[C@H](C)NC(=O)[C@@H]1CSSC[C@H](NC(=O)[C@@H](N)CCCCNC(=O)CC[C@H](NC(=O)CCCCCCCCCCCCCCCCCCC(=O)O)C(=O)O)C(=O)N[C@@H](CC(N)=O)C(=O)N[C@@H]([C@@H](C)O)C(=O)N[C@@H](C)C(=O)N[C@@H]([C@@H](C)O)C(=O)N1)[C@@H](C)O)C(=O)N1CCC[C@H]1C(=O)N[C@@H](CO)C(=O)N[C@@H](CO)C(=O)N[C@H](C(=O)N[C@@H](CC(N)=O)C(=O)N[C@H](C(=O)NCC(=O)N1CCC[C@H]1C(=O)N[C@@H](CC(N)=O)C(=O)N[C@H](C(=O)N[C@@H](Cc1ccc(O)cc1)C(N)=O)[C@@H](C)O)C(C)C)[C@@H](C)O
notes: also called compound 94
hAmylin-R funct. EC50 (pM) [1]: 70 pM | Ratio hCT/hAmylin funct. [2]: 4.5

B5: N^ε1-[(4S)-4-carboxy-4-(19-carboxynonadecanoylamino)butanoyl]-[Asp14,Arg17,Pro21,Pro27,Pro34,Glu35]-h-amylin (peptide)
peptide: K([γGlu-C20 diacid])CNTATCATQRLADFLRHSSPNFGAIPSSTNVGPETY-NH2
modifications: disulfide 2-7; N-terminus assumed
SMILES: CC[C@H](C)[C@H](NC(=O)[C@H](C)NC(=O)CNC(=O)[C@H](Cc1ccccc1)NC(=O)[C@H](CC(N)=O)NC(=O)[C@@H]1CCCN1C(=O)[C@H](CO)NC(=O)[C@H](CO)NC(=O)[C@H](Cc1c[nH]cn1)NC(=O)[C@H](CCCNC(=N)N)NC(=O)[C@H](CC(C)C)NC(=O)[C@H](Cc1ccccc1)NC(=O)[C@H](CC(=O)O)NC(=O)[C@H](C)NC(=O)[C@H](CC(C)C)NC(=O)[C@H](CCCNC(=N)N)NC(=O)[C@H](CCC(N)=O)NC(=O)[C@@H](NC(=O)[C@H](C)NC(=O)[C@@H]1CSSC[C@H](NC(=O)[C@@H](N)CCCCNC(=O)CC[C@H](NC(=O)CCCCCCCCCCCCCCCCCCC(=O)O)C(=O)O)C(=O)N[C@@H](CC(N)=O)C(=O)N[C@@H]([C@@H](C)O)C(=O)N[C@@H](C)C(=O)N[C@@H]([C@@H](C)O)C(=O)N1)[C@@H](C)O)C(=O)N1CCC[C@H]1C(=O)N[C@@H](CO)C(=O)N[C@@H](CO)C(=O)N[C@H](C(=O)N[C@@H](CC(N)=O)C(=O)N[C@H](C(=O)NCC(=O)N1CCC[C@H]1C(=O)N[C@@H](CCC(=O)O)C(=O)N[C@H](C(=O)N[C@@H](Cc1ccc(O)cc1)C(N)=O)[C@@H](C)O)C(C)C)[C@@H](C)O
hAmylin-R funct. EC50 (pM) [1]: 288 pM | Ratio hCT/hAmylin funct. [2]: 3.9 | hCTR funct. EC50 (pM) [2]: 1120 pM

Reference: patent publication US20140087995A1 (published 2014)
